Experimental findings from the DeepSol protein solubility set are described below.

This data set is described as follows: soluble on expression in E. coli; label from the status in PepcDB or PDB records.
For “MGSDKIHHHHHHMSDLTVNDGSYQQLLDRIGECLALGQQRSFEQVNSVLVETYWQIGRYIVEFEQAGKERAEYGSKLLQVLSRDLKAAYGKGFSRSNLQYMRLFYLNYENCQTLSGKLSWSHYTELLAISDDLARSFYEQQCIQDRWSVRELKRQKDSALFERVALSKDRAEILALAKDGQRIESARDVVKDPYVFEFLDLPDRNYRESELENRLIAELEKFLLELGKGFAFIGQQYRITLNNTHFFVDLVFYHRILKCFVLIDLKTRAVSHQDIGQMNMYLNYFRAEENMEDDNEPIGIVLARDKDEILVEYAKGGISNQLFVSRYQLYLPDPEVLKQELKRLLSVNDG”, the “soluble on expression in E. coli” value is on record as “not soluble”.
For “MGKITGFLEIERHDRKYTPVAERVKHFHEFVVPLTERETRDQAARCMNCGIPYCHGTGSVAPGTPGCPVNNQIPDFNDLVYQGNWEEASRNLHSTNNFPEFTGRICPAPCEASCTLNIDDNPVTIKTIECAIVDRAWDNGWLKPEVASVKTGKKVAVIGSGPAGMACAQQLARAGHDVHLFEKFAKAGGLLRYGIPDFKMEKGIIDRRVKQMEGEGVTFHYNSHVGADGNVDPREMLNEYDAVALTGGAEAPRDLPIPGRDLQGIHYAMDFLPQQNRRVSEEPLNGVTEILAGGKHVVVIGGGDTGSDCIGTSLRQGALSVTQLEIMPAPPERENKGLTWPNWPLKMRTSSSQAEGAIREFAVLTQKFSGENGQVKKLHCVRVDDKFKPIAGTEFELDAELVLLAMGFVHPVHEGLLKLLSVELDPRGNVKANTLDYQTSRPNVFTAGDMRRGQSLVVWAIREGRLCARSIDTFLMGKTDLPRLEHHHHHH”, the “soluble on expression in E. coli” value is recorded as “soluble”.
As for “MDPLLTVLKERMRACQRRVSDRPRRQVVAIEWIDPPMASGNWIPELIALAGGENMLGTAGKHSPYIEWSTLLAIDPEVILVMPCGFDLERTRQELDQALQTYPQWQQLRALQTGQLYILDGNAYFNRPGPRLVDSLEILVEILHPCPEPKFHGVGWRPYVGPSMAKMSDEGLEHHHHHH”, the “soluble on expression in E. coli” value is recorded as “not soluble”.
For the sequence “MKFTSATGSGSGQGSSSGTNTSAGNPDGLQADKVDQNGQVKTSVQEATSGDNLTNYTNLPPANLTPTADPNALSFTNKNNAQRAQLFLRGLLGSIPVLVNKSGQDDLEHHHHHH”, the “soluble on expression in E. coli” value was “not soluble”.
In the case of “MGHHHHHHSHKRVVLKLSGEALAGEKGFGINPVIIKSVAEQVAEVAKMDCEIAVIVGGGNIWRGKTGSDLGMDRGTADYMGMLATVMNALALQDSLEQLDCDTRVLTSIEMKQVAEPYIRRRAIRHLEKKRVVIFAAGIGNPYFSTDTTAALRAAEVEADVILMGKNNVDGVYSADPKVNKDAVKYEHLTHIQMLQEGLQVMDSTASSFCMDNNIPLTVFS” it was “not soluble”; in that of “MGSDKIHHHHHHMLLRKAFKFEIRPNGEQIRKIKQFCGCSRFVFNRALAWQNEQYEQDNNQKFSYSKLTSLLPQWKKELIWLKECHSQVLQQSLKDLESAFKNFFQQRADFPKFKKKGIKESFRFPQGCKIQPQNDRLYLPKIGWVRYRNSREIVGEVKNVTVSQKCGRFFVSIQTEFEHEIPMHKGGEIGIDMGIARFATLSNGEFFEPINAFKTYKGKLAKLQKQLKNKVKFSKNWQKLKEKIGKLHHKIANCRKDFLHKISTQISKNHAMIYVEDLQVANMSKSAKGTVEAHGKNVKQKSGLNRSIRDQSWFEFRRQLDYKTQWLGGFLVAVPAQNTSRTCPCCGHIAKENRETQAHFECVECGYTENADVVGAMNVLTRGQAIVQA”, “not soluble”.
In the case of “MAHHHHHHMGLEDIDVDDPPLTTSATPQTQKQCSSTLPNPPVTNVVKGASAPVDLVDLFGDLNVSTATPVVVTAATVGAATNSKNQAHYAGNTADDDFEWVTAKPSVAPPLAPKSYQGNAGTSNDPLDSFFSQAVPTPAATETAKPPDSSNDLFDFSEPVERVKYTNENTLLEAFANQGKANQGGGSKGPTLADLSKGSSDNVVKARLLKLMNYYDVLGVTPDATEAVIRQRFKKKALELHPDRVGRDQTPEEVELFKVMTKAHEVLTDPEERAKYDAQLLGGVPSGSPDSDWFFPPS” it was “soluble”; in that of “MNVERWAQALKEEYPRGLLGEREALVSLLVGKGLSHAEAVEVARALEAQGYAHFLPGERPRWFFSSRSLDLKALMRALDQEFPEFVGEGDEEEEALAFLAARLGDREVAREVLEAMRAAGYVERAYSPELARDRLFFRFPEALRLLG”, “soluble”.
With “MGSDKIHHHHHHMLDKIELFILDMDGTFYLDDSLLPGSLEFLETLKEKNKRFVFFTNNSSLGAQDYVRKLRNMGVDVPDDAVVTSGEITAEHMLKRFGRCRIFLLGTPQLKKVFEAYGHVIDEENPDFVVLGFDKTLTYERLKKACILLRKGKFYIATHPDINCPSKEGPVPDAGSIMAAIEASTGRKPDLIAGKPNPLVVDVISEKFGVPKERMAMVGDRLYTDVKLGKNAGIVSILVLTGETTPEDLERAETKPDFVFKNLGELAKAVQ”, the “soluble on expression in E. coli” value is “not soluble”.
As for “MLDLIDSAKESVWIVSPYFVPDEEALAVIRRVAMSGVDVRVIIPGKGDRGISFHGSNAYVKTMIEAGAKMYAYADDSFVHAKAMLVDGTRAAIGTANFDVRSFRLNHELMVFLYDESEAMLHLKRDFKKDFEDSRLFTMKDMENKPLLTRIKEVLSSLLSPIL”, the “soluble on expression in E. coli” value is reported as “not soluble”.
Take “MITILGPTACGKTRLAVSLAYRLETEIISADSRQIYRGMDIGTGKDLADYQVGGTTIPCHLIDIRPAGDKYNLFAYQHDFHQAYASILARGMDPILCGGTGMYIEAVLKGYHLPDVPPNPTLRDRLQGKSLTELTLILAAYGPLHNKTDVDSAQRAIRAIEIAEYIKNNPVESTEFPPIDSLIIGLDLDRDTRRKRITDRLHARMHEGMIEEVKGLLDSGIPAEDLIYYGLEYKFVTLYLTGQTDYESMFTGLETAIHQFAKRQMTWFRGMERRGFLIHWIDALLPADEQCEAVMKLYGANGLEHHHHHH”: the “soluble on expression in E. coli” value is “soluble”.
As for “MAVKISGVLKDGAGKPVVNCAIELRARRTSPTVVAHVVATCVTDNNGAYVIEAEPGYYEVALHCNGWQPTRVGDIDVAPTDAPGTLNAFLNAPKDGDLRPEVMKRFEEMVAQAQQSAGAAAGNAQQTAQDVAAAATARDDAQRFAEKARQDATVTAEDRKATAEDVTSTGANAAAAGQSAQDAAGYARAAEQAKNDIDAALTGTLKMANHLSEIAAAGEKAQQKSRDNLGLKSAATMEAQSDIYDRTKGRLAIPGAFGFGCAFLPEDVIRFDTKSDFLAWVRNALPGEYSVAGPYGIIIPDTRFEGVLSIRWTDARPETTEPRYRAKSLTFYGINGPIYHTRYRYWPISRLTG”, the “soluble on expression in E. coli” value is listed as “not soluble”.
Regarding “SEQETRGANEAIDFNDELRNRREKLAALRQQGVAFPNDFRRDHTSDQLHEEFDAKDNQELESLNIEVSVAGRMMTRRIMGKASFVTLQDVGGRIQLYVARDSLPEGVYNDQFKKWDLGDIIGARGTLFKTQTGELSIHCTELRLLTKALRPLPDKFHGLQDQEVRYRQRYLDLIANDKSRQTFVVRSKILAAIRQFMVARGFMEVETPMMQVIPGGASARPFITHHNALDLDMYLRIAPELYLKRLVVGGFERVFEINRNFRNEGISVRHNPEFTMMELYMAYADYHDLIELTESLFRTLAQEVLGTTKVTYGEHVFDFGKPFEKLTMREAIKKYRPETDMADLDNFDAAKALAESIGITVEKSWGLGRIVTEIFDEVAEAHLIQPTFITEYPAEVSPLARRNDVNPEITDRFEFFIGGREIGNGFSELNDAEDQAERFQEQVNAKAAGDDEAMFYDEDYVTALEYGLPPTAGLGIGIDRMIMLFTNSHTIRDVILFPAMRPQK”, the “soluble on expression in E. coli” value is “soluble”.
In the case of “RIDNRNDEILRITGNPYHPLSHQQHIPFETPVKDAYLSLAGEAGLDGRSTACARGNGMLEIRNSPYRITQPLKRVGKRGEGKWIPISYEQLIEEVVEGGDLFGEGHVDGLRDIRDLTTPVDPENPEYGPKANQLLMTNAGNEGRDDIFKRFAFNSYGTRNFGHHGSYCGYAFRAGSGAFMNDLDKNAHLKPDFDNAEYIIFIGMSPAQAGNPFKRQARQLANARTEGSLE”, the “soluble on expression in E. coli” value is “not soluble”.
As for “MSLDKFQLKGKVALVTGCKRGIGKAMAIGLAEAGADIIGVSASLELEGSSVEQAIRATGRNFKAYQCDFSDRKSLYNFINSVKADYSRIDILVNNAGTILRTPAAEHPDEMWDKVIEVNQNAQFILTRELGKEMVSRGEGKVIFTASLLTFQGGITVPGYAASKGAIGQMTMAFANEWASKGVNVNAIAPGYISTDNTEALRNDPDRSASILSRIPAGRWGEAEDFAGPVVFLASEAAAYMHGSIMLVDGGWMGREGHHHHHH”, the “soluble on expression in E. coli” value is reported as “soluble”.
Consider “MSLLSYQHIYHAGNLADVQKHALLALALDYLTRKDKPLSYLETHAGRGLYHLDAAEAVRTGEAGAGIGRAEGAAWFDPAHPMTRVLAAVRTDHGAMAYPGSPLVAAHLLRPGDMMHLAELHPQEHAALEQAMAGYPARVYRRDGVEMAQSLLPPEPRRGMMLIDPSYEVKSDYDRIPAVIAQLHRKWNVGVIALWYPILTDERHKVMLAALERLDLPRVLRHEVRFAPAREGHRMVGSGMFVINAPFGLADEAARLSGLFAQLEGHHHHHH”, for which the “soluble on expression in E. coli” value was “soluble”.
In the case of “MRPAGRSNNQVRPVTLTRNYTKHAEGSVLVEFGDTKVLCTASIEEGVPRFLKGQGQGWITAEYGMLPRSTHTRNAREAAKGKQGGRTMEIQRLIARALRAAVDLKALGEFTITLDCDVLQADGGTRTASITGACVALVDALQKLVENGKLKTNPMKGMVAAVSVGIVNGEAVCDLEYVEDSAAETDMNVVMTEDGRIIEVQGTAEGEPFTHEELLILLALARGESNPL” it was “soluble”; in that of “MAHHHHHHMTDVAEGHQSYANAFISEGDRTSAVRYLDLFLRLYEEYCDVAEVEANSRVLQAATVMQSNSHAPDLLSYVVSAAALGIGGTRALAPALASLPLKVLNLSECYLGDAGLRVLAETLSASSHSTGGLRVLELRGISASDGSSVALLVTALRSLQLLDVSSNRFGTRPPGFALLCAAMGYHPALREVHIADNMVSGCCESCVGAIAEWLVKASRACMLQHVDLRFNTLGLYRRGLYNTVVDGKEVQCTLYGFYPLVDALLLNNSIEVLEVGNNGFPPGVLDAIEAKLAVNKRTKKALQEYYTNHIDR”, “not soluble”.
For the sequence “QTKIYESYKLPDYLKDKIKNNNHAEMDENDLDNKIFYKPNVAAHSQFIDYKYNGNHSVEIKFETDAIEVYEIRPVSIATITHVTIPNDCASNNSNSNECVLIIHVWNNSKFVGSNFSCSIACTNKETDQLASHINPIAPVRAFIGPNKNYAFYFIIKFLINKEITTLCKAIVKDSNGKECSIEEFELQSKESVHIVESEVDETTDQVVVEHHTQSPDIKNPDEYVCKCTINLLCYV”, the “soluble on expression in E. coli” value is reported as “soluble”.
“MGSDKIHHHHHHMRRSDGRLLKSLSPFVRIIPHIMTKRNDAQNFYKQVVAVDKIDQYIKEKKDQGIRLNYLHLFIAVYVRVLAQRPQLNRFIMNNKIYTRYDIRISMAIKRLLKDDGEETTVKFLFSGLESIEEIVKIVDQTIEEGCAAGAANEVDTIAQRIMALPNSQVKLLVGTLKWMDRHNLLPKKIIEASPFHTSLFFTYLKSINLDFIYHHLYDFGTTGIFVALGKSKKLPVVEEDQVVVKKCCEIGYVLDERICDGLYYSNSFKLVKKYLANPYLLDERLEKVEEDVN”: the “soluble on expression in E. coli” value is “not soluble”.
With “MLDLHLTMSNSMNYMKAATAYINLEALQHNLQRVKQQAPESKIMAVVKANGYGHGLRHIARHALGADAFGVARIEEALQLRASGVVKPILLLEGFYSPGDLPVLVTNNIQTVVHCEEQLQALEQAQLETPVMVWLKVDSGMHRLGVRPEQYQDFVARLHQCENVAKPLRYMSHFGCADELDKSTTVEQTELFLSLTQGCQGERSLAASAGLLAWPQSQLEWVRPGIIMYGVSPFVEKSAVQLGYQPVMTLKSHLIAVREVKAGESVGYGGTWTSQRDTKIGVIAIGYGDGYPRTAPNGTPVVVNGRRVPIAGRVSMDMLTVDLGPDACDRVGDEAMLWGNELPVEEVAAHIGTIGYELVTKLTSRVEMSYYGAGV”, the “soluble on expression in E. coli” value is given as “not soluble”.
